The record followed here is the nanobody polyreactivity screen of Harvey et al. (2022).

The data set can be described thus: yeast display, Sf9 membrane polyspecificity reagent, FACS + sequencing; frameworks hold sequencing errors. The gist of the method: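 Using colony PCR, genes from sorted yeast display clones were amplified, then sequenced on MiSeq at 2 × 250 and filtered by CDR length. The clones had been stained with 10% biotinylated, detergent-solubilized Sf9 membrane reagent for 1 hour at 4 °C and sorted by FACS into low and high (top ~1%) gates on anti-HA and streptavidin fluorescence. Polyreactivity labels come from the gate of origin.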
“QVQLVESGGGLVQAGGSLRLSCAASGINFWNYAMGWYRQAPGKERELVAAISSSSGRTYYADSVKGRFTISRDNAKNTVYLQMNSLKPEDTAVYYCAARRSFARRFKNSMEYWGQGTQVTVSS”: the “polyreactivity (PSR sort gate)” value is listed as “high polyreactivity”.

“QVQLVESGGGLVQAGGSLRLSCAASGINYDYYTMGWYRQAPGKERELVASINFSGGSTYYADSVKGRFTISRDNAKNTVYLQMNSLKPEDTAVYYCAAVSVSFWGGGRYYYWGQGTQVTVSS”: the “polyreactivity (PSR sort gate)” value is reported as “high polyreactivity”.

For “QVQLVESGGGLVQAGGSLRLSCAASGISFITYVMGWYRQAPGKERELVAAISLRGGRTSYADSVKGRFTISRDNAKNTVYLQMNSLKPEDTAVYYCAARAYYTRYDYWGQGTQVTVSS”, the “polyreactivity (PSR sort gate)” value is “high polyreactivity”.

Regarding “QVQLVESGGGLVQAGGSLRLSCAASGISFLDNALGWYRQATGKERELVAAYADSVKGRFTISRDNAKNTVYLQMNSLKPEDTAVYYCNAGWIRNYGFSLVTYDYWGQGTQVTVSS”, the “polyreactivity (PSR sort gate)” value is reported as “low polyreactivity”.

With “QVQLVESGGGLVQAGGSLRLSCAASGISFSANAMGWYRQAPGKEREWVAAISASGGSTRYADSVKGRFTISRDNAKNTVYLQMNSLKPEDTAVYYCATRRTSRSKWRHYWGQGTQVTVSS”, the “polyreactivity (PSR sort gate)” value was “high polyreactivity”.

As for “QVQLVESGGGLVQAGGSLRLSCAASGISFVYYAMGWYRQAPGKERELVAAITSDGGSTYYADSVKGRFTISRDNAKNTVYLQMNSLKPEDTAVYYCAAEWTSWSWWYGWYEFDYWGQGTQVTVSS”, the “polyreactivity (PSR sort gate)” value is reported as “high polyreactivity”.

Turning to “QVQLVESGGGLVQAGGSLRLSCAASGITFADNAMGWYRQAPGKERELVARISRGGRTNYADSVKGRFTISRDNAKNTVYLQMNSLKPEDTAVYYCAADKSSYEYYWGQGTQVTVSS”, the “polyreactivity (PSR sort gate)” value is reported as “high polyreactivity”.

In the case of “QVQLVESGGGLVQAGGSLRLSCAASGITFAIYDMGWYRQAPGKERELVAVISGRGGSTYYADSVKGRFTISRDNAKNTVYLQMNSLKPEDTAVYYCAARGEASIFAGYDYWGQGTQVTVSS”, the “polyreactivity (PSR sort gate)” value is “low polyreactivity”.

Turning to “QVQLVESGGGLVQAGGSLRLSCAASGITFANYAMGWYRQAPGKERELVAAISWSDTSTYADSVKGRFTISRDNAKNTVYLQMNSLKPEDTAVYYCAADYHTPSSFAPIELYDYWGQGTQVTVSS”, the “polyreactivity (PSR sort gate)” value is “low polyreactivity”.

As for “QVQLVESGGGLVQAGGSLRLSCAASGITFAYYAMGWYRQAPGKERELVAAISRSGGGTYYADSVKGRFTISRDNAKNTVYLQMNSLKPEDTAVYYCNKDYPYYNSGPWAYKFDYWGQGTQVTVSS”, the “polyreactivity (PSR sort gate)” value is recorded as “high polyreactivity”.

Take “QVQLVESGGGLVQAGGSLRLSCAASGITFAYYVMGWYRQAPGKERELVATITGRGGSTSYADSVKGRFTISRDNEKNPVYLQMNSLKPEETAVYYCATGRYSVADNYWGQGTQVTVSS”: the “polyreactivity (PSR sort gate)” value is listed as “high polyreactivity”.

With “QVQLVESGGGLVQAGGSLRLSCAASGITFDDYVMGWYRQAPGKERELVAAITRSGGRTYYADSVKGRFTISRDNAKNTVYLQMNSLKPEDTAVYYCAARHRDNRFDYWGQGTQVTVSS”, the “polyreactivity (PSR sort gate)” value is listed as “high polyreactivity”.

For the sequence “QVQLVESGGGLVQAGGSLRLSCAASGITFDGYAMGWYRQAPGKERELVAAITYSGGRTYYADSVKGRFTISRDNAKNTVYLQMNCLKPDDTAVYYCAVVSRRLYEYDYWGQGTQVTVSS”, the “polyreactivity (PSR sort gate)” value is “high polyreactivity”.

With “QVQLVESGGGLVQAGGSLRLSCAASGITFDHSAMGWYRQAPGKEREFVAAIDDIGGDTYYADSVKGRFTISRDNAKNTVYLQMNSLKPEDTAVDYCAADYGYYSRFYYWGQGTQVTVSS”, the “polyreactivity (PSR sort gate)” value is given as “low polyreactivity”.

Turning to “QVQLVESGGGLVQAGGSLRLSCAASGITFDKYAMGWYRQAPGKERELVAAISWGGGRTYYADSVKGRFTISRDNAKNTVYLQMNSLKPEDTAVYYCATSHGLYTRWYDYWGQGTQVTVSS”, the “polyreactivity (PSR sort gate)” value was “high polyreactivity”.

For “QVQLVESGGGLVQAGGSLRLSCAASGITFDLYDMGWYRQAPGKERELVAAITDADSTYYADSVKGRFTISRDNAKNTVYLQMNSLKPEDTAVYYCAADFFYSVYSGHYDYWGQGTQVTVSS”, the “polyreactivity (PSR sort gate)” value is reported as “low polyreactivity”.

Regarding “QVQLVESGGGLVQAGGSLRLSCAASGITFDRYVMGWYRQAPGKERELVAAISWTGDSTYYADSVKGRFTISRDNAKNTVYLQMNSQKPEDTAVYYCAAEDLWYGYNYWGQGTQVTVSS”, the “polyreactivity (PSR sort gate)” value is “high polyreactivity”.

Consider “QVQLVESGGGLVQAGGSLRLSCAASGITFDYNAMGWYRQAPGKERELVADISASGDSTYYADSVKGRFTISRDNAKNTVYLQMNSLKPEDTAVYYCNTAYWYSWGYDYWGQGTQVTVSS”, for which the “polyreactivity (PSR sort gate)” value is reported as “low polyreactivity”.

On to “QVQLVESGGGLVQAGGSLRLSCAASGITFDYYAMGWYRQAPRKERELVAAITGGGSTNYADSVKGRFTISRDNAKNTVYLQMNSLIPEDTAVYFCNALTRYRYQYGYLGGTGYNYWGHGTQVTVSS”, for which the “polyreactivity (PSR sort gate)” value is given as “low polyreactivity”.

Regarding “QVQLVESGGGLVQAGGSLRLSCAASGITFEDNAMGWYRQAPGKERELVATISDGGRTYYADSVKGRFTISRDNAKNTVYIQMNSLKPEDTAVYYCAAGYPYYHVYGYGYWGQGTQVTVSS”, the “polyreactivity (PSR sort gate)” value is reported as “low polyreactivity”.

With “QVQLVESGGGLVQAGGSLRLSCAASGITFEGYALGWYRQAPGKERELVAAIRSSGTSTYYADSVKGRFTISRDNAKNTVYLQMNSLKPEDTAVYYCNRARSSSRYDYWGQGTQVTVSS”, the “polyreactivity (PSR sort gate)” value is given as “low polyreactivity”.

With “QVQLVESGGGLVQAGGSLRLSCAASGITFERNGMGWYRQAPGKERELVAAIRSGGSTYYADSVKGRFTISRDNAKNTVYLQMNSLKPEDTAVYYCNAPYGRQGYDYWGQGTQVTVSS”, the “polyreactivity (PSR sort gate)” value is “low polyreactivity”.

“QVQLVESGGGLVQAGGSLRLSCAASGITFEYYAMGWYRQAPGKERELVAAIDTGGSTNYADSVKGRFTISRDNAKNTVYLQMNSLKPEDTAVYYCAADWSWWDGEDYHFEVDYWGQGTQVTVSS”: the “polyreactivity (PSR sort gate)” value is “low polyreactivity”.

Regarding “QVQLVESGGGLVQAGGSLRLSCAASGITFEYYTMGWYRQAPGKERELVAAITSGGSTYYADSVKGRFTISRDNAKNTVYLQMNSLKPEDTAVYYCNADWSATSGEWTWFQYDYWGQGTQVTVSS”, the “polyreactivity (PSR sort gate)” value is “high polyreactivity”.

As to “QVQLVESGGGLVQAGGSLRLSCAASGITFFAYAMGWYRQAPGKERELVAAIWRGDNTYYADSVKGRFTISRDNAKNTVYLQMNSLKPEDTAVYYCAARYWSRRIFREGYWGQGTQVTVSS”, the “polyreactivity (PSR sort gate)” value is “high polyreactivity”.

Turning to “QVQLVESGGGLVQAGGSLRLSCAASGITFFRNARGWYRQAPGKEREFVATISRSSGSTYADSVKGRFTISRDNAKNTVYLQMNSLKPEDTAVYYCAAERTYSDSLSFDHWGQGTQVTVSS”, the “polyreactivity (PSR sort gate)” value is “low polyreactivity”.

Take “QVQLVESGGGLVQAGGSLRLSCAASGITFFTYAMGWYRQAPGKERELVAAISGSGGSTYYADSVKGRFTISRDNAKNTVYLQMNSLKPEDTAVYYCATDTGYPYSYDLYDSYYWGQGTQVTVSS”: the “polyreactivity (PSR sort gate)” value is reported as “low polyreactivity”.

In the case of “QVQLVESGGGLVQAGGSLRLSCAASGITFGDNDMGWYRQAPGKDRELVASISSGGSTTYADSVKGRFTISRDNAKNTVYLQMNSLKPEDTADYYCNADYGSSVEYNYWGQGTQVTVSS”, the “polyreactivity (PSR sort gate)” value is recorded as “low polyreactivity”.

Consider “QVQLVESGGGLVQAGGSLRLSCAASGITFGDYAMGWYRQAPGKERELVAAISYGGGSTYYADSVKGSFTISRDNAKNTVYLQMNSLKPEDTAVYYCAADGWRTYGYYEYDYWGQGTQVTVSS”, for which the “polyreactivity (PSR sort gate)” value is “low polyreactivity”.

Take “QVQLVESGGGLVQAGGSLRLSCAASGITFGDYDMGWYRPAPGKERELVAAITYDGGTTYYADSVKGRFTISRDNAKNTVYLQMHSLKPEDTAVYYCNADSYRGLYDYWGQGTQVTVSS”: the “polyreactivity (PSR sort gate)” value is recorded as “low polyreactivity”.
